Patent publication US20200171068A1, “COMPOSITIONS COMPRISING APTAMERS AND NUCLEIC ACID PAYLOADS AND METHODS OF USING THE SAME” (Children's National Medical Center, priority 2017, published 2020)

B1: miR-26a chimera: mouse c-Kit DNA aptamer-C3-passenger RNA, passenger RNA-TEG-cholesterol and miR-26a-5p guide strand annealed (SEQ ID NO:6/7, 8, 9) (nucleic acid)
chain 1: GCTCAACGCGGGACGGCTCTCCCATTGAC
chain 2: CCUAUUCUGG
chain 3: GUUACUUGCACG
guide: UUCAAGUAAUCCAGGAUAGGCU
modifications: chemistry not fully specified

Key:
hematopoiesis [1] = type: in vivo, mouse
Method: The mice received intravenous injection of 670 pmol/20 g miR-26a or control chimera daily for 3 days. 150 mg/kg 5-FU was injected on day 2 of the chimera treatment. FIG. 2A is a graph showing the numbers of white blood cells (WBC) 10 days after 5-FU treatment. Data (mean+s.d.) were pooled from two experiments, involving a total of 6 mice per group. FIG. 2B is a graph showing the number of bone marrow (BM) cells 10 days after 5-FU treatment. Data (mean+s.d.) were pooled from two experiments, involving a total of 6 mice per group. FIG. 2C is (left) a representative picture of LSK population 5 days after 5-FU treatment with or without miR-26a chimera treatment; and (right) a graph showing the percentages of LSK population. Data (mean+s.d.) were pooled from two experiments, involving a total of 6 mice per group. FIG. 2D is a series of graphs showing apoptosis. Left, representative picture of Annexin V^+ in LSK population 5 days after 5-FU treatment. Right, the percentages of Annexin V^+ in the LSK population. Data (mean+s.d.) were pooled from two experiments, involving a total of 6 mice per group. *P<0.05, **P<0.01. FIG. 2E is a picture showing a putative miR-26a target site in the 3′UTR of mouse Bak1 (SEQ ID NO:19). Base pairs CU-GA -UACUUGAA (SEQ ID NO:20) of the Bak Sequence and its complementary basepairs are the sites with highly probability preferential conservation between mammals. The miR-26a sequence depicted is SEQ ID NO:21. FIG. 2F is a graph showing relative luciferase activity of reporter constructs containing the wild-type or mutant (mut) 3′-UTR of mouse Bak1 in HEK293 cells co-transfected with either miR-26a precursor (OE), miR-26a TuD inhibitor (TuD), or negative control (ctrl). Data were pooled from two experiments. FIG. 2G is a graph showing relative expression level of Bak1 mRNA in LSK population 5 days after 5-FU treatment. Data (mean+s.d.) were pooled from two experiments, involving a total of 6 mice per group. FIG. 2H is a graph showing that targeted mutation of the Bak1 gene increased survival of LSK in BM at day 5 after 150 mg/kg 5-FU treatments. Data shown are percent of LSK in BM (n=3 for Bak1^+/+ mice and n=4 for Bak1^−/− mice). […] of Bak1^+/+ and Bak1^−/− LSK in BM. Data shown percent of untreated, after normalization using means of LSK % from BM of two untreated Bak1^+/+ and Bak1^−/− mice as 100%. FIG. 2J is a graph showing the numbers of WBC 10 days after 150 mg/kg 5-FU treatments between Bak1^−/− mice and wild type mice. Data (mean+s.d.) were pooled from two experiments, involving a total of 7 mice per group. *P<0.05, **P<0.01.
For xenograft models, the NSG mice and BALB/c mice were subcutaneously injected with 2×10^6 viable MDA-MB-231 cells and TUBO cells in their right hind limbs, respectively. After the tumor grew to 1 cm in diameter, mice were randomly divided into the groups for each treatment. For no treatment control, 100 μl saline with 1% mouse serum was intravenously injected through tail vein. […] Tumor sizes were measured in two dimensions every 3 days. Tumor volume (V) was calculated using the following formula: V=(½) S^2×L (S. the shortest dimension; L, the longest dimension). Animals were euthanized when the tumor size was over 2 cm diameters, tumor ulcerated, or became necrotic. For chimera treatment in normal mice, C57BL/6 mice were treated with miR-26a chimera (670 pmol/20 g) everyday for 3 days by intravenous injection. At day 2, 150 mg/kg 5-FU and/or 120 mg/kg carboplatin was injected together with the chimera. Peripheral bloods were collected at day 5 and day 10 after the 5-FU treatment. Complete blood counts were measured by Hemavet 950FS (Drew Scientific, Miami Lakes, Fla., USA).
For aptamer binding assay, streptavidin-APC (Cat #554067) […] Bioscience, San Jose, Calif., USA) was used for detecting the biotin-conjugated aptamers by flow cytometry. Other cell targeting aptamer specific for Ramos cells (28) was used for negative control. […]

hematopoiesis [2] = experiment: Carboplatin-induced myelosuppression in mice; type: in vivo, mouse
Method: For xenograft models, the NSG mice and BALB/c mice were subcutaneously injected with 2×10^6 viable MDA-MB-231 cells and TUBO cells in their right hind limbs, respectively. After the tumor grew to 1 cm in diameter, mice were randomly divided into the groups for each treatment. For no treatment control, 100 μl saline with 1% mouse serum was intravenously injected through tail vein. For treatment groups, 670 pmol/20 g chimeras and/or 5(0 mg/kg 5-fluorouracil (5-FU), or 120 mg/kg carboplatin were also intravenously injected. Tumor sizes were measured in two dimensions every 3 days. Tumor volume (V) was calculated using the following formula: V=(½) S^2×L (S. the shortest dimension; L, the longest dimension). Animals were euthanized when the tumor size was over 2 cm diameters, tumor ulcerated, or became necrotic. For chimera treatment in normal mice, C57BL/6 mice were treated with miR-26a chimera (670 pmol/20 g) everyday for 3 days by intravenous injection. At day 2, 150 mg/kg 5-FU and/or 120 mg/kg carboplatin was injected together with the chimera. Peripheral bloods were collected at day 5 and day 10 after the 5-FU treatment. Complete blood counts were measured by Hemavet 950FS (Drew Scientific, Miami Lakes, Fla., USA).

Row | Molecule | reduction in the LSK population (hematopoiesis [1]; C57BL/6, mouse, in vivo, 5 days) [fold] | Bak1 expression in LSK cells (hematopoiesis [1]; mouse, in vivo) | percent of apoptotic (Annexin V+) LSK (hematopoiesis [1]; mouse, in vivo) | carboplatin-induced myelosuppression (figure title) (hematopoiesis [2]; 670 pmol/20 g i.v. daily for 3 days, FIG. 6) | carboplatin-induced reduction in WBC and RBC (hematopoiesis [2]; 3 daily injections of chimera) | carboplatin-induced reduction of platelet on day 5 (hematopoiesis [2]; 3 daily injections of chimera) | drop of platelets from day 5 to day 10 (hematopoiesis [2]; 3 daily injections of chimera) | 5-FU-induced myelosuppression (leukocyte counts, bone marrow cellularity) (hematopoiesis [1]; 670 pmol/20 g chimera i.v. daily for 3 days, 150 mg/kg 5-FU on day 2) | 5-FU-induced myelosuppression (WBC, RBC, PLT), chimera mixed with 5-FU (hematopoiesis [1]; 150 mg/kg 5-FU with 2 nmol/20 g chimera i.v. at same time, 5 and 10 days) | prevention of 5-FU-induced reduction in the LSK population (hematopoiesis [1]; 5 days after 5-FU, chimera 670 pmol/20 g daily for 3 days) | protection of LSK from 5-FU-induced apoptosis (hematopoiesis [1]; 5 days after 5-FU, chimera treatment) | 5-FU-induced Bak elevation in LSK cells (hematopoiesis [1]; mouse, in vivo)
1 | O=c1[nH]cc(F)c(=O)[nH]1 [5-FU, 5-fluorouracil, reference compound] | ~10 | massively induced | massively increased |  |  |  |  |  |  |  |  | 
2 | B1 |  |  |  | protects mice against carboplatin-induced myelosuppression | prevented reduction in WBC and RBC | not prevented | prevented further drop of platelets | significantly ameliorated myelosuppression | protects mice against 5-FU-induced myelosuppression | largely prevented | specifically protected | significantly diminished
